Experimental data published in US20230341394A1.

Target: CR3022 IgG antibody

Substance	assay signal (TR-FRET ratio) (TR-FRET ratio)
anti-IgG Nanobody (Chromotek Nano-Secondary alpaca anti-human IgG) (VHH)	0.6
anti-IgG antibody (Bethyl, A80-104A)	0.25
